These results are taken from paper PMC7797039, “G-Quadruplex loops regulate PARP-1 enzymatic activation”.

Data set [1] concerns the target T1, PARP-1 (Homo sapiens, UniProt P09874 1-1014). The experiment in a line: fluorescence anisotropy; 140 mM KCl, 8 mM MgCl2; 25 mM HEPES pH 8.0, 140 mM KCl, 8 mM MgCl2, 50 ug/ml BSA, 0.02 mM TCEP, 4% glycerol, 11.4 mM bME, 5 nM labeled DNA, 30 min room temperature, read at 25 C. The following applies: protein: recombinant, tags: His-tag (pET28a).
The target of data set [2] is T1, PARP-1. The experiment in a line: fluorescence anisotropy; 140 mM KCl, 8 mM MgCl2; tighter than c-KIT, Kd in figure only; 25 mM HEPES pH 8.0, 140 mM KCl, 8 mM MgCl2, 50 ug/ml BSA, 0.02 mM TCEP, 4% glycerol, 11.4 mM bME, 5 nM labeled DNA, 30 min room temperature, read at 25 C. To be noted: protein: recombinant; tags: His-tag (pET28a); parallel G4.
The target of data set [3] is T1, PARP-1. The experiment in a line: fluorescence anisotropy; 140 mM KCl, 8 mM MgCl2; ~14-fold tighter than c-KIT, similar to 18-bp dsDNA; 25 mM HEPES pH 8.0, 140 mM KCl, 8 mM MgCl2, 50 ug/ml BSA, 0.02 mM TCEP, 4% glycerol, 11.4 mM bME, 5 nM labeled DNA, 30 min room temperature, read at 25 C. The following applies: protein: recombinant; tags: His-tag (pET28a); parallel G4.

One may read the Kd as a measure of binding affinity in units of concentration.

T1 sequence (P09874 whole entry): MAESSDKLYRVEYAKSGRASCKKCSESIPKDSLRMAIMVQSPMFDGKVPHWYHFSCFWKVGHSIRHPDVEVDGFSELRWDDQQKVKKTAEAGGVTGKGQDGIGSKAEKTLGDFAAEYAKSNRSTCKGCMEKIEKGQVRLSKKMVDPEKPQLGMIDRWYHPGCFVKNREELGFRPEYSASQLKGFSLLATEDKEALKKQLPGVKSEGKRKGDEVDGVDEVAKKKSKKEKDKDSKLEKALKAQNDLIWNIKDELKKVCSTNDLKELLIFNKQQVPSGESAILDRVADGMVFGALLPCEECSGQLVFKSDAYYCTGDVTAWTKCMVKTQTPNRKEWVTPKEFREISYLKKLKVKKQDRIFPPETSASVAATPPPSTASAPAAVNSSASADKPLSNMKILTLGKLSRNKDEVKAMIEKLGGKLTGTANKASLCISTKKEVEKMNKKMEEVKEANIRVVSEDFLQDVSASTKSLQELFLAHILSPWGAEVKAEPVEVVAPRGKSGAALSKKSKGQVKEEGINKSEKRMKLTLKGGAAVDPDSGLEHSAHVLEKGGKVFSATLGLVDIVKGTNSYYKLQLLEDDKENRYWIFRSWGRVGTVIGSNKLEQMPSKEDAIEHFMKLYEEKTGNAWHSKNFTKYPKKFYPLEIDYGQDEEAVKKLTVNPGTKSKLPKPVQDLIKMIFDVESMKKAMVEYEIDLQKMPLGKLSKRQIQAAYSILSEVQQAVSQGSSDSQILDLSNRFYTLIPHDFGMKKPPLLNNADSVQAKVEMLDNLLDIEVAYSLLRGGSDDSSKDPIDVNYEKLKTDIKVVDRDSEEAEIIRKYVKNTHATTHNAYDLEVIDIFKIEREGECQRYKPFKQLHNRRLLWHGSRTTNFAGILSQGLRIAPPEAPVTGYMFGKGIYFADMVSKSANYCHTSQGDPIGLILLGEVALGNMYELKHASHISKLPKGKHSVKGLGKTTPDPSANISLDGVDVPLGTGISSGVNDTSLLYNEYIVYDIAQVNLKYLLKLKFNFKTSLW

With CGGGCGGGCGCGAGGGAGGGGAGG (structured_DNA) [c-KIT 5'], the Kd with PARP-1 [1] (parallel G4) came out at 230 ± 9 nM.
As for CCCGGGCGGGCGCGAGGGAGGGGAGG (structured_DNA) [c-KIT G4DNA], the Kd with PARP-1 [1] (parallel G4, stem-loop also possible) came out at 430 ± 60 nM.
For the molecule CCCGGGCGGGCGGGAGGGGAGG (structured_DNA) [c-KIT L2], the binding result in the data set with PARP-1 [2] is on record as “binds”.
On to TGGGTGGGTAGGGTGGGT (structured_DNA) [c-MYC G4DNA (Pu18 T14T23)], for which the Kd with PARP-1 [1] (parallel G4) came out at 400 ± 50 nM.

B1: 18-bp dsDNA (dsDNA)
DNA 1: GGGTTGCGGCCGCTTGGG
DNA 2: CCCAAGCGGCCGCAACCC
Consider B1, for which the Kd in the data set with PARP-1 [1] (blunt) was 30 ± 10 nM.
Take GGGCGGGCGGGAGGGGAGG (structured_DNA) [c-KIT 5':L2]: the Kd in the data set with PARP-1 [3] was about 30 nM.
